Results on one protein are retold here after patent US7252930 (Takeda / Millennium, dated 2007).

This series deals with the molecule itself. Nature of the series: X-ray crystal structure, homodimer in the asymmetric unit.

B1: MvaS (HMG-CoA Synthase) from Enterococcus faecalis, full length with non-cleavable carboxy-terminal six histidine tag, seleno-methionine labeled (enzyme)
chain: MTIGIDKISFFVPPYYIDMTALAEARNVDPGKFHIGIGQDQMAVNPISQDIVTFAANAAEAILTKEDKEAIDMVIVGTESSIDESKAAAVVLHRLMGIQPFARSFEIKEACYGATAGLQLAKNHVALHPDKKVLVVAADIAKYGLNSGGEPTQGAGAVAMLVASEPRILALKEDNVMLTQDIYDFWRPTGHPYPMVDGPLSNETYIQSFAQVWDEHKKRTGLDFADYDALAFHIPYTKMGKKALLAKISDQTEAEQERILARYEESIVYSRRVGNLYTGSLYLGLISLLENATTLTAGNQIGLFSYGSGAVAEFFTGELVAGYQNHLQKETHLALLDNRTELSIAEYEAMFAETLDTDIDQTLEDELKYSISAINNTVRSYRNKGHHHHHH
modifications: seleno-methionine in place of methionine (100% incorporation by MS); observed mass corresponds to protein without N-terminal methionine
notes: It was crystallized as a complex with the small molecule HMG-CoA; There are two MvaS molecules (A and B) in the asymmetric unit, described as a dimer; also called MvaS Ef
Regarding B1, the binding result was “binds”.
